From US20200223921A1 (TRUEBINDING, published 2020)
One block for each molecule: values may come before it.

B1: mouse TIM-3 Fc protein (R&D systems) (Fc fusion, UniProt Q8VIM0 20-191, looked up)
chain: RSLENAYVFEVGKNAYLPCSYTLSTPGALVPMCWGKGFCPWSQCTNELLRTDERNVTYQKSSRYQLKGDLNKGDVSLIIKNVTLDDHGTYCCRIQFPGLMNDKKLELKLDIKAAKVTPAQTAHGDSTTASPRTLTTERNGSETQTLVTLHNNNGTKISTWADEIKDSGETIR
notes: Bought; also called mTIM-3 Fc; mTIM-3-Fc; not shown: Fc

Columns and labels:
[1] = target: mouse Gal3 (endogenous, on B16F10 tumor cells and RAW264.7 macrophages) (mouse) (UniProt P16110); test: flow cytometry on B16F10 cells, rat anti mouse Gal3 PE against control rat IgG PE
[2] = target: human Gal9 protein (R&D systems) (human) (UniProt O00182); test: ELISA: plate coated with hGal9, mTIM-3 Fc with or without 25 mM alpha-lactose
[3] = target: T1, Flag-tagged human Gal3 protein stably expressed on A20 cells (A20 Gal3 cells) (human, UniProt P17931 2-250); test: flow cytometry: mTIM-3 Fc on live A20 Gal3 cells, anti-hFc APC detection (FIG. 4B, row 2)
T1 construct: Mouse B lymphoma A20 cells transfected with a construct encoding Flag-tagged human Gal3; also called A20 cells overexpressing human Gal3; hGal3; not shown: Flag tag
Experimental: Flow cytometry analysis was performed to evaluate the binding between TIM-3 and Gal3 using A20 cells. A20 Gal3 cells were incubated with 10% FBS HBSS solution that contains with or without mouse TIM-3 Fc on ice for 20 minutes. There are five experimental groups: in group 1, A20 Gal3 cells were incubated without mTIM-3 Fc protein as control; in group 2, A20 Gal3 cells were incubated with mTIM-3 Fc protein; in groups 3, 4, 5, in addition to mTIM-3 Fc protein, anti-mouse TIM-3 polyclonal antibody (R&D System, Minneapolis, Minn.) (group 3), monoclonal antibody RMT3-23 (Bio X cell, West Lebanon, N.H.) (group 4), monoclonal antibody 215015 (R&D Systems) (group 5), were also added to test if these antibodies could block Gal3 and Tim3 binding. For blocking, cells were incubated with 10% FBS HBSS containing mentioned antibodies, then were added with 10% FBS HBSS containing mTIM-3 Fc for 20 min. Samples were centrifuged and pellet were added 10% FBS HBSS containing APC conjugated anti-hFc antibodies (Jackson ImmunoResearch, West Grove, Pa.) for 20 min. After spinning, live/dead cells were stained with Violet dead cell stain kit (Life Technologies). Stained cells were subjected to flow analysis.

[4] = target: B1; test: ELISA: plate coated with mGal3 at 10 ug/ml, mTIM-3 Fc (FIGS. 5A-5C)
Experimental: In FIG. 5A, different anti Gal3 antibodies, i.e. mGal3 polyclonal antibody (R&D sytems), mAb IMT001, mAb M3/38 (Thermofisher Scientific) (FIG. 5A), were added to well that has been coated with Gal3. The antibodies were incubated for 10 minutes and mouse TIM-3 Fc were then added to the plates and incubated for an additional one-hour incubation. Plates were then washed for three times and followed by incubation with anti human-IgG-HRP (Jackson ImmunoResearch) for 1 h at room temperature. The color was developed with TMB subtract (GeneTex, Irvine, Calif.) after three time washes with TBST and the reaction was terminated with 1N HCl. The optical density (OD) was read at 450 nm. The results were expressed as the average OD of duplicates±SD.
In FIG. 5B, mouse Gal3 protein (BioLegend) in PBS (groups 1 and 2) or PS (Sigma-Aldrich, St. Louis, Mo.) in ethanol (groups 3 and 4) were coated on the plates and incubated at 4° C. overnight. Anti mTIM-3 mouse antibodies, mAb RMT3-23 (Bio X cell), was added to the coated plates for groups 2 and 4 only. Secondary anti human-IgG-HRP antibody and substrates were added as described above to detect the binding of the mTIM-3 to mGal3 or PS. […]

Sequence of human Gal9 protein (R&D systems) (human) (O00182 other isoform, or with tags, fused parts or gaps limits assumed): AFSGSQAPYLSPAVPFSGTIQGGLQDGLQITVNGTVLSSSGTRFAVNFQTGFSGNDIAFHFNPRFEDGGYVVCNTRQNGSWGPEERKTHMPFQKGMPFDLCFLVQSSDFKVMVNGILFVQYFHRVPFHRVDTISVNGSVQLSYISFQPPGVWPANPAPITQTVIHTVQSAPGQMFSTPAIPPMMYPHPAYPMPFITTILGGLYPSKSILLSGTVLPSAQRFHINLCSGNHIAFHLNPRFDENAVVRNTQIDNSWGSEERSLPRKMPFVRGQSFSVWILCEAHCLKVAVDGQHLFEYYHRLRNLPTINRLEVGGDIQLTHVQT
T1 sequence (P17931 2-250): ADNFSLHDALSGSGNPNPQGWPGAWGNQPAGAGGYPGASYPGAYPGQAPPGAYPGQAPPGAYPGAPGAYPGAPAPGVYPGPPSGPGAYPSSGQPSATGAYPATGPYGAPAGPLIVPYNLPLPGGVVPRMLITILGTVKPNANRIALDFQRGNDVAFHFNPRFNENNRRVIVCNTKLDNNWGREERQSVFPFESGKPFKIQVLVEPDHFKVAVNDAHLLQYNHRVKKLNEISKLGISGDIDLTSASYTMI

- fold of MFI over isotype control antibody [1]: 10 fold
Molecule: rat anti mouse Gal3 PE antibody (Thermo Fisher Scientific)

Molecule: B1
- fold reduction in ELISA signal with 25 mM alpha-lactose against no lactose [2]: > 10 fold
- binding result [3]: binds

- binding result [4]: binds
B2: mouse Gal3 protein (BioLegend) (ligand)
chain: ADSFSLNDALAGSGNPNPQGYPGAWGNQPGAGGYPGAAYPGAYPGQAPPGAYPGQAPPGAYPGQAPPSAYPGPTAPGAYPGPTAPGAYPGSTAPGAFPGQPGAPGAYPSAPGGYPAAGPYGVPAGPLTVPYDLPLPGGVMPRMLITIMGTVKPNANRIVLDFRRGNDVAFHFNPRFNENNRRVIVCNTKQDNNWGKEERQSAFPFESGKPFKIQVLVEADHFKVAVNDAHLLQYNHRMKNLREISQLGISGDITLTSANHAMI
notes: Bought recombinant protein coated on ELISA plates; also called mGal3
